Residue numbers refer to the chain shown, from its start. Values belong to the binder of their own block, whether it stands above or below them. Square brackets hold non-standard residues; d marks the D form. Primed or numbered codes have the meaning given here. Ends that are not written are not given here. PEG4″ = 4-unit polyethylene glycol spacer; PEG8″ = 8-unit polyethylene glycol spacer
Tests used:
Test in all cases: cell-based or functional assay
type A insulin receptor = type A insulin receptor (UniProt P06213)
[1] = target: human IGF-1 receptor (human) (UniProt P08069)
type B insulin receptor = type B insulin receptor (UniProt P06213)
[2] = target: type A insulin receptor, P06213
[3] = target: type B insulin receptor, P06213

B1: GE5W-B^1(A5H10Y16L17)25-C^1-A^1(H8N18N21) (ligand)
chain: GEEEEEWGPEALCGAHLVDALYLVCGDRGFYGYGSSSRRAPQTGIVDECCHRSCDLRRLENYCN
% (potency at the receptor, assay not named) (type A insulin receptor): 8.6%
% (potency at the receptor, assay not named) [1]: 0.3%
% (potency at the receptor, assay not named) (type B insulin receptor): 2.3%

B3: DP3(TC): B^1(H5,10Y16L17K29)29:A^1(H8,N18,21) (ligand)
chain 1: GPEHLCGAHLVDALYLVCGDRGFYFNKK
chain 2: GIVDECCHRSCDLRRLENYCN
% activity in vitro [2]: 160%
% activity in vitro [3]: 33.1%

B5: B^1(H5,10Y16L17A24)25-C^1-A^1(H8N18,N21) (ligand)
chain: GPEHLCGAHLVDALYLVCGDRGAYGYGSSSRRAPQTGIVDECCHRSCDLRRLENYCN
% (potency at the receptor, assay not named) (type A insulin receptor): 0.1%
% (potency at the receptor, assay not named) [1]: 0.3%
% (potency at the receptor, assay not named) (type B insulin receptor): 0.4%

B6: B^1(H5,10Y16L17)25-C^1-A^1(T8N18,21) (ligand)
chain: B5 chain with A23F, H44T
% (potency at the receptor, assay not named) [2]: 20.4%
% (potency at the receptor, assay not named) [3]: 8.4%

B7: B^1(A5H10Y16L17)25-C^1-A^1(H8N18N21) (ligand)
chain: B5 chain with H4A, A23F
% (potency at the receptor, assay not named) [1]: 2.5%
% (potency at the receptor, assay not named) (type B insulin receptor): 5.7%

B10: DP8Mut3KA14: B^1(H5,10Y16L17R29)30-C^1des9-12-A^1(H8,K14,N18,21) (ligand)
chain: GPEHLCGAHLVDALYLVCGDRGFYFNKRTGYGSSSRRGIVDECCHRSCDLKRLENYCN
% activity in vitro [2]: 132%
% activity in vitro [3]: 12.6%

Binder: GPEHLCGAHLVDALYLVCGDRGFYFNKKGIVDECCHRSCDLRRLENYCN (ligand) [DP3(SC): B^1(H5,10Y16L17K29)29-A^1(H8,N18,21)]
% activity in vitro [2]: 0.03%

Second part, the binder after the results:

% (potency at the receptor, assay not named) [2]: 2.1%
% (potency at the receptor, assay not named) [3]: 0.7%
B2: GE5W-B^1(H5,10Y16L17)25-C^1-A^1(A1H8N18,21) (ligand)
chain: B1 chain with A11H, G44A

% (potency at the receptor, assay not named) (type A insulin receptor): 61.4%
% Insulin Activity (in vitro, assay not named) (type A insulin receptor): 61.4%
% (potency at the receptor, assay not named) [1]: 3.2%
% Insulin Activity (in vitro, assay not named) [1]: 3.2%
% (potency at the receptor, assay not named) (type B insulin receptor): 17.4%
% Insulin Activity (in vitro, assay not named) (type B insulin receptor): 17.4%
B4: MIU-35: B^1(H5,10Y16L17)25-C^1-A^1(H8N18,21) (ligand)
chain: B5 chain with A23F

% activity in vitro [2]: 1.7%
% activity in vitro [3]: 0.2%
B8: MIU-79 di-10K-SC: B1,A14-10K B^1(H5,10Y16L17R29)30-C^1des9-12-A^1(H8,K14,N18,21) (ligand)
chain: {PEG 10 kDa}-GPEHLCGAHLVDALYLVCGDRGFYFNKRTGYGSSSRRGIVDECCHRSCDLK(PEG 10 kDa)RLENYCN
modifications: ends and bridges not checked

% Insulin Activity (in vitro, assay not named) [2]: 14.8%
Phosphorylation (EC50), % IR-A [2]: 14.8%
Phosphorylation (EC50), % IR-B [3]: 2%
Binder: Ac-GPEHLCGAELVDALYLVCGDRGFY[PEG8″]K(PEG 20 kDa)[PEG4″]GIVDECCFRSCDLRRLENYCN (ligand, cysteine pairing not given here) [MIU-56: C8-PEG20K B^1(H5,Y16,L17)25-PEG8-K-PEG4-A^1(N18,N21)]

% activity in vitro [2]: 97.5%
% activity in vitro [3]: 16.7%
B9: MIU-43 DP8Mut3: B^1(H5,10Y16L17R29)30-C^1des9-12-A^1(H8,N18,21) (ligand)
chain: B10 chain with K51R

% activity in vitro (type A insulin receptor): 8.2%
% activity in vitro (type B insulin receptor): 3.2%
B11: MIU-78 mono-20K-TC: B1-20K B^1(H5,10Y16L17K29)29:A^1(H8N18,21) (ligand)
chain 1: GPEHLCGAHLVDALYLVCGDRGFYFNKK
chain 2: GIVDECCHRSCDLRRLENYCN

% activity in vitro [2]: 6.4%
% activity in vitro [3]: 2.1%
B12: di-10K-TC: B1,A14-10K B^1(H5,10Y16L17R29)29:A^1(H8K14N18,21) (ligand)
chain 1: {PEG 10 kDa}-GPEHLCGAHLVDALYLVCGDRGFYFNKR
chain 2: GIVDECCHRSCDLK(PEG 10 kDa)RLENYCN
modifications: ends and bridges not checked

% activity in vitro (type A insulin receptor): 0.1%
Binder: GPEHLCGAHLVDALYLVCGDRGFYFNKKGIVDECCHRSCDLRRLENYCN (ligand) [MIU-77 mono-20K-SC: B1-20K B^1(H5,10Y16L17K29)29-A^1(H8N18,21)]

% (potency at the receptor, assay not named) [2]: 4.5%
% Insulin Activity (in vitro, assay not named) [2]: 3.1%
Phosphorylation (EC50), % IR-A [2]: 4.5%
% (potency at the receptor, assay not named) [3]: 1.1%
% Insulin Activity (in vitro, assay not named) [3]: 1.1%
Phosphorylation (EC50), % IR-B [3]: 1.1%
B13: MIU-57: B1-PEG20K MIU-35 (ligand)
chain: {PEG 20 kDa}-GPEHLCGAHLVDALYLVCGDRGFYGYGSSSRRAPQTGIVDECCHRSCDLRRLENYCN
modifications: ends and bridges not checked

— patent US20150274802A1
